Data reported in US20240409614A1 (DANMARKS TEKNISKE UNIVERSITET, published 2024).
Substitutions are numbered along the chain they refer to. Names may count otherwise. Blank lines part the entries; values can stand above or below the binder they belong to.

Target: elastase (EnzChek Elastase Assay kit, Invitrogen)
Assay: cell-based or functional assay

IC50 (anti-elastase activity), first determination: 74.6 nM
IC50 (anti-elastase activity), second determination: 78.2 nM
B1: A1AT-M351V/L353A/M358V (other)
chain: EDPQGDAAQKTDTSHHDQDHPTFNKITPNLAEFAFSLYRQLAHQSNSTNIFFSPVSIATAFAMLSLGTKADTHDEILEGLNFNLTEIPEAQIHEGFQELLRTLNQPDSQLQLTTGNGLFLSEGLKLVDKFLEDVKKLYHSEAFTVNFGDTEEAKKQINDYVEKGTQGKIVDLVKELDRDTVFALVNYIFFKGKWERPFEVKDTEEEDFHVDQVTTVKVPMMKRLGMFNIQHCKKLSSWVLLMKYLGNATAIFFLPDEGKLQHLENELTHDIITKFLENEDRRSASLHLPKLSITGTYDLKSVLGQLGITKVFSNGADLSGVTEEAPLKLSKAVHKAVLTIDEKGTEAAGAVFAEAIPVSIPPEVKFNKPFVFLMIEQNTKSPLFMGKVVNPTQK

IC50 (anti-elastase activity), first determination: 98.9 nM
IC50 (anti-elastase activity), second determination: 115 nM
B2: A1AT-M351V/L353T/M358V (other)
chain: B1 chain with A353T

IC50 (anti-elastase activity), first determination: 86.9 nM
IC50 (anti-elastase activity), second determination: 108 nM
B3: A1AT-M351V/L353S/M358V (other)
chain: B1 chain with A353S
